According to US20170369572A1 (CELGENE, published 2017):

Legend:
human CD47 antigen [1] = biological target: T1, human CD47 antigen (human, UniProt Q08722 19-139, limits assumed); assay: SPR (Biacore), experimental Rmax against theoretical Rmax, stoichiometry 2
T1 construct: also called CD47 analyte
Protocol: (§1) Kinetic Assays: For kinetic assays anti-CD47 antibodies were captured onto the anti-human Fc surfaces (surface preparation described above). For capture of the antibodies with human Fc, the antibodies were diluted to 10 μg/mL in HBS-EP+ running buffer. The antibody variants were immobilized by flowing over flow cell 2, 3 or 4 at a flow rate of 10 uL/min for 12 seconds. The analyte (human CD47 antigen) was diluted into running buffer to prepare a serial dilution series created with a 2-fold dilution factor to give concentrations of 3.125, 6.25, 12.5, 25 and 50 nM. After anti-CD47 antibody capture, the CD47 analyte was injected over the flow cells for 180 seconds (3 minutes) at 50 μL/min, and complex dissociation was monitored for 900 seconds (15 minutes). Buffer blanks were also run, and were used to reference the analyte binding data before fitting. Anti-human Fc surfaces were regenerated with two 30-second injections of 3M MgCl₂ at 30 uL/min between each analyte binding cycle.
Kinetic data analysis: Experimental data for a given antibody—antigen interaction were fit using the 1:1 binding model, using global Rₘₐₓ, global kₐ (association), global kd (dissociation) parameters, and constant RI (bulk refractive index) parameters. Fraction activity (% ligand activity) was determinined using the following formula to calculate the relationship between the theoretical Rₘₐₓ (Rₘₐₓ Theo) and the experimental Rₘₐₓ (Rₘₐₓ exp). In the formula, stoichiometry represents the instances of interaction between antibody and antigen, for instance, when the antibody is the ligand, each of the antibody arms can interact with antigen, thus the stoichiometry is 2.

human CD47 antigen [2] = biological target: T1, human CD47 antigen; assay: SPR (Biacore), antibody captured on anti-human Fc, human CD47 as analyte 3.125-50 nM, 1:1 model
Protocol: (§2) Immobilization: Anti-human Fc (AHC) surfaces were prepared by amine-coupling monoclonal mouse anti-human Fc IgG (included in the Biacore Human Antibody Capture Kit, GE Life Sciences Cat #BR-1008-39) to a Biacore CM5 sensor chip surface. The running buffer for the immobilization procedure was HBS-EP+ (10 mM HEPES, 150 mM NaCl, 3 mM EDTA, 0.05% v/v P-20 as surfactant). The following was performed in all four flow cells to prepare surfaces amine-coupled anti-human Fc IgG. The CM5 chip surface was activated by injecting a 1:1 (v/v) mixture of 400 mM EDC and 100 mM NHS for 7 minutes at 10 μL/min. Following this treatment, anti-human IgG was diluted to 25 μg/mL in 10 mM sodium acetate buffer pH 5.0, and injected over all the flow cells at 10 μL/min for 7 minutes. Then, Ethanolamine was injected at 10 μL/min for 7 minutes to block all the surfaces.
as §1
(§3) Kinetic data analysis: Experimental data for a given antibody—antigen interaction were fit using the 1:1 binding model, using global Rₘₐₓ, global kₐ (association), global kd (dissociation) parameters, and constant RI (bulk refractive index) parameters.

[3] = biological target: T2, human CD47 on CCRF-CEM cells (human, UniProt Q08722 19-323); assay: flow cytometry on CCRF-CEM cells, MFI against concentration, one site specific binding with Hill slope
T2 construct: Endogenous CD47 on the human T lymphoblast line CCRF-CEM (ATCC CCL-119); also called CD47-positive CCRF-CEM cells; CCRF-EM cells
Protocol: To obtain binding curves, sample variants were titrated 1:2 in FACS buffer (PBS 2% FCS) starting from a high concentration of ˜66 nM for each sample. 0.1×10⁶ CCRF-EM cells were plated in a 96 well plate and incubated in 50 μl FACS buffer containing the indicated concentration of sample variants for 1 hour in ice. Cells were then washed with 150 μ1 FACS buffer and incubated in 50 μl FACS buffer containing the secondary antibody (anti-human-IgG-PE, Jackson ImmunoResearch) diluted 1:100, for 1 hr in ice. Cells were then washed with FACS buffer and fixed in 2% PFA for acquisition with LSR II, DB flow cytometer (BD Biosciences, San Jose, Calif.). Flow Cytometry analysis was performed using FloJo software Version 9.6.4. To obtain titration curves and Kd, Mean Fluorescence Intensity (MFI) values were plotted against concentration (nM). Kd values were calculated using Prism 6, Non linear regression curve fit analysis, One Site Specific Binding with Hill Slope.

human C1q = biological target: T3, human C1q (human, UniProt P02745 23-245; P02746 28-253; P02747 29-245); assay: C1q binding ELISA, antibody coated and titrated, bound human C1q detected with anti-C1q HRP; NA = do not show activity
T3 construct: also called C1q (AbD Serotec 2221-5504)
Protocol: Method: 96-well high protein binding ELISA plates (MaxSorp Nunc) were coated overnight at 4° C. with sample anti-CD47 antibody variants diluted in 0.05 M Sodium Bicarbonate Buffer (pH 9). Samples were diluted at a high concentration of 133.4 nM (20 μg/ml) and titrated 1:2 in an 11-point dilution curve. Plates were washed three times in PBS, 0.05% Tween 20 and blocked for 1 hour at room temperature with ELISA Diluent (0.1 M NAPO₄, 0.1 M NaCl, 0.1% gelatin, 0.05% Tween 20, 0.05% ProClin300). Plates were then washed again three times and incubated for two hours at room temperature with 2 μg/mL human C1q (AbD Serotec 2221-5504, 1 mg/mL stock) diluted in ELISA Diluent. Plates were then washed three times and incubated with sheep anti-human C1q HRP (AbD Serotec 2221-5004P) diluted 1:200 in ELISA Diluent for 1 hour at room temperature to detect bound Clq. Plates were then washed three times, then 100 μL of TMB solution was added. Reaction was quenched by adding 100 μl of 1M Phosphoric Acid and plate was read at 450 nm. Data are plotted using Prism6 as non-linear regression with log (inhibitor) vs. response—Variable slope (four parameters).

human CD47 antigen [4] = biological target: T1, human CD47 antigen; assay: SPR (Biacore): antibody captured on anti-human Fc CM5 chip, human CD47 as analyte at 3.125-50 nM, 1:1 Binding model; the text says this fit is not reliable
Protocol: as §2, §1, §3

T3 sequence (P02745 23-245 limits assumed, chain 1 of 3): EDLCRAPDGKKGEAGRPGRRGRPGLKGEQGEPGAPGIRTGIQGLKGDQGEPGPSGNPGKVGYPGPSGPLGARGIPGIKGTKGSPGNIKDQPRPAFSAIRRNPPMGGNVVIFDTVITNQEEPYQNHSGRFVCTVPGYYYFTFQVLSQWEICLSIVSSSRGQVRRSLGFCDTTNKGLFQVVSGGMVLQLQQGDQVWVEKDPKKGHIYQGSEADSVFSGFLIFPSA
T3 sequence (P02746 28-253 limits assumed, chain 2 of 3): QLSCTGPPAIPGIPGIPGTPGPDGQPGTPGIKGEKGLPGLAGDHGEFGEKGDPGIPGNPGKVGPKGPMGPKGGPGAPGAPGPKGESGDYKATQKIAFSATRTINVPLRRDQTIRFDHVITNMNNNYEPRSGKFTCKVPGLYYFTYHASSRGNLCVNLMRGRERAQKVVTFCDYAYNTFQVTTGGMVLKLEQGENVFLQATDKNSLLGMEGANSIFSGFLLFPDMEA
T3 sequence (P02747 29-245 limits assumed, chain 3 of 3): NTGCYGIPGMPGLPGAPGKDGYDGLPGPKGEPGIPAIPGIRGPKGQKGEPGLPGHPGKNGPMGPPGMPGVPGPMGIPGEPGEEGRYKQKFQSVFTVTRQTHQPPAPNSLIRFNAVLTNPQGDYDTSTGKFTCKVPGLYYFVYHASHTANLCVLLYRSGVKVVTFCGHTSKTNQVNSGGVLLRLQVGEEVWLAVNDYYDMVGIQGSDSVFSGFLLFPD

Binder | % Ligand activity (human CD47 antigen [1]) [%] | Kd (human CD47 antigen [2]) [pM] | koff (human CD47 antigen [2]) [s⁻¹] | kon (human CD47 antigen [2]) [M⁻¹ s⁻¹] | Kd [3] [pM] | binding result (human C1q) | Kd (human CD47 antigen [4]) [pM] | koff (human CD47 antigen [4]) [s⁻¹] | kon (human CD47 antigen [4]) [M⁻¹ s⁻¹]
Anti-CD47 CF Control (antibody, V domains shown, also called Control Antibody; anti-CD47 control antibody) VH: QMQLVQSGAEVKKTGSSVKVSCKASGFNIKDYYLHWVRQAPGQALEWMGWIDPDQGDTEYAQKFQDRVTITRDRSMSTAYMELSSLRSEDTAMYYCNAAYGSSSYPMDYWGQGTTVTV VL: NIQMTQSPSAMSASVGDRVTITCKASQDIHRYLSWFQQKPGKVPKHLIYRANRLVSGVPSRFSGSGSGTEFTLTISSLQPEDFATYYCLQYDEFPYTFGGGTKVEIK | 39.4 | 3160 | 0.00231 | 732000 |  |  |  |  | 
anti-CD47 antibody IgG4P-parental, CHO expressed (antibody, Parental antibody as IgG4 S228P, made in CHO cells) VH: not shown VL: NIQMTQSPSAMSASVGDRVTITCKASQDIHRYLSWFQQKPGKVPKHLIYRANRLVSGVPSRFSGSGSGTEFTLTISSLQPEDFATYYCLQYDEFPYTFGGGTKVEIKRTVAAPSVFIFPPSDEQLKSGTASVVCLLNNFYPREAKVQWKVDNALQSGNSQESVTEQDSKDSTYSLSSTLTLSKADYEKHKVYACEVTHQGLSSPVTKSFNRGEC |  |  |  |  | 180 | no binding |  |  | 
anti-CD47 antibody IgG4PE-parental, CHO expressed (antibody, Parental antibody as IgG4 S228P/L235E, made in CHO cells; also called IgG4-PE CHO; CHO IgG4PE) VH: not shown VL: NIQMTQSPSAMSASVGDRVTITCKASQDIHRYLSWFQQKPGKVPKHLIYRANRLVSGVPSRFSGSGSGTEFTLTISSLQPEDFATYYCLQYDEFPYTFGGGTKVEIKRTVAAPSVFIFPPSDEQLKSGTASVVCLLNNFYPREAKVQWKVDNALQSGNSQESVTEQDSKDSTYSLSSTLTLSKADYEKHKVYACEVTHQGLSSPVTKSFNRGEC |  |  |  |  | 210 | no binding |  |  | 
anti-CD47 antibody IgG1-13m, cell-free expressed (antibody, IgG1 with 13 framework mutations in VH; cell-free system; also called IgG1-13m-CF) heavy: not shown light: MNIQMTQSPSAMSASVGDRVTITCKASQDIHRYLSWFQQKPGKVPKHLIYRANRLVSGVPSRFSGSGSGTEFTLTISSLQPEDFATYYCLQYDEFPYTFGGGTKVEIKRTVAAPSVFIFPPSDEQLKSGTASVVCLLNNFYPREAKVQWKVDNALQSGNSQESVTEQDSKDSTYSLSSTLTLSKADYEKHKVYACEVTHQGLSSPVTKSFNRGEC |  |  |  |  | 150 | no binding | 4200 | 0.00398 | 946000
anti-CD47 antibody IgG4P-5m, cell-free expressed (antibody, IgG4 S228P with 5 framework mutations in VH; cell-free system; also called IgG4P-5m-CF) heavy: not shown light: MNIQMTQSPSAMSASVGDRVTITCKASQDIHRYLSWFQQKPGKVPKHLIYRANRLVSGVPSRFSGSGSGTEFTLTISSLQPEDFATYYCLQYDEFPYTFGGGTKVEIKRTVAAPSVFIFPPSDEQLKSGTASVVCLLNNFYPREAKVQWKVDNALQSGNSQESVTEQDSKDSTYSLSSTLTLSKADYEKHKVYACEVTHQGLSSPVTKSFNRGEC | 38.2 | 3600 | 0.00254 | 704000 | 140 | no binding |  |  | 
anti-CD47 antibody IgG4P-parental, cell-free expressed (antibody, Parental variable domains on IgG4 S228P; cell-free system; also called IgG4P-parental-CF) heavy: not shown light: MNIQMTQSPSAMSASVGDRVTITCKASQDIHRYLSWFQQKPGKVPKHLIYRANRLVSGVPSRFSGSGSGTEFTLTISSLQPEDFATYYCLQYDEFPYTFGGGTKVEIKRTVAAPSVFIFPPSDEQLKSGTASVVCLLNNFYPREAKVQWKVDNALQSGNSQESVTEQDSKDSTYSLSSTLTLSKADYEKHKVYACEVTHQGLSSPVTKSFNRGEC |  |  |  |  |  | no binding |  |  | 
anti-CD47 antibody IgG4PE-parental, cell-free expressed (antibody, Parental variable domains on IgG4 S228P/L235E; cell-free system; also called IgG4PE-parental-CF) heavy: not shown light: MNIQMTQSPSAMSASVGDRVTITCKASQDIHRYLSWFQQKPGKVPKHLIYRANRLVSGVPSRFSGSGSGTEFTLTISSLQPEDFATYYCLQYDEFPYTFGGGTKVEIKRTVAAPSVFIFPPSDEQLKSGTASVVCLLNNFYPREAKVQWKVDNALQSGNSQESVTEQDSKDSTYSLSSTLTLSKADYEKHKVYACEVTHQGLSSPVTKSFNRGEC |  |  |  |  |  | no binding |  |  | 
anti-CD47 antibody IgG1-13mZ, cell-free expressed (antibody, IgG1 Z allotype with 13 framework mutations in VH (13 + 2 mutations); cell-free system; also called IgG1-13mZ-CF) heavy: not shown light: MNIQMTQSPSAMSASVGDRVTITCKASQDIHRYLSWFQQKPGKVPKHLIYRANRLVSGVPSRFSGSGSGTEFTLTISSLQPEDFATYYCLQYDEFPYTFGGGTKVEIKRTVAAPSVFIFPPSDEQLKSGTASVVCLLNNFYPREAKVQWKVDNALQSGNSQESVTEQDSKDSTYSLSSTLTLSKADYEKHKVYACEVTHQGLSSPVTKSFNRGEC |  |  |  |  | 210 | no binding | 4910 | 0.00404 | 824000

Other lines, results leading:

% Ligand activity (human CD47 antigen [1]) [%] | Kd (human CD47 antigen [2]) [pM] | koff (human CD47 antigen [2]) [s⁻¹] | kon (human CD47 antigen [2]) [M⁻¹ s⁻¹] | Kd [3] [pM] | binding result (human C1q) | Kd (human CD47 antigen [4]) [pM] | koff (human CD47 antigen [4]) [s⁻¹] | kon (human CD47 antigen [4]) [M⁻¹ s⁻¹] | Binder
 |  |  |  | 140 | no binding |  |  |  | anti-CD47 antibody IgG1-parental, cell-free expressed (antibody, Parental (AB6.12) variable domains on IgG1; cell-free system; also called IgG1-parental-CF; IgG1-CF) heavy: not shown light: MNIQMTQSPSAMSASVGDRVTITCKASQDIHRYLSWFQQKPGKVPKHLIYRANRLVSGVPSRFSGSGSGTEFTLTISSLQPEDFATYYCLQYDEFPYTFGGGTKVEIKRTVAAPSVFIFPPSDEQLKSGTASVVCLLNNFYPREAKVQWKVDNALQSGNSQESVTEQDSKDSTYSLSSTLTLSKADYEKHKVYACEVTHQGLSSPVTKSFNRGEC
37.4 | 4090 | 0.0026 | 636000 | 120 | no binding |  |  |  | anti-CD47 antibody IgG1-5m, cell-free expressed (antibody, IgG1 with 5 framework mutations in VH; also called IgG1-5m-CF) heavy: not shown light: MNIQMTQSPSAMSASVGDRVTITCKASQDIHRYLSWFQQKPGKVPKHLIYRANRLVSGVPSRFSGSGSGTEFTLTISSLQPEDFATYYCLQYDEFPYTFGGGTKVEIKRTVAAPSVFIFPPSDEQLKSGTASVVCLLNNFYPREAKVQWKVDNALQSGNSQESVTEQDSKDSTYSLSSTLTLSKADYEKHKVYACEVTHQGLSSPVTKSFNRGEC
39.2 | 4270 | 0.00254 | 594000 | 140 | no binding |  |  |  | anti-CD47 antibody IgG4PE-5m, cell-free expressed (antibody, IgG4 S228P/L235E with 5 framework mutations in VH; cell-free system; also called IgG4PE-5m-CF) heavy: not shown light: MNIQMTQSPSAMSASVGDRVTITCKASQDIHRYLSWFQQKPGKVPKHLIYRANRLVSGVPSRFSGSGSGTEFTLTISSLQPEDFATYYCLQYDEFPYTFGGGTKVEIKRTVAAPSVFIFPPSDEQLKSGTASVVCLLNNFYPREAKVQWKVDNALQSGNSQESVTEQDSKDSTYSLSSTLTLSKADYEKHKVYACEVTHQGLSSPVTKSFNRGEC
